Test results from the supplement of paper PMC9233669.
Fewer inactive variants are shown than the library holds.

Assays:
[1] = test system: biotinyl-Phe-oxazolone; assay: self-aminoacylation, catalytic enhancement (BFO) (fold over background); higher = more active; k-Seq, kA / k0A0; sequences stand for … in GGGAAUGGAUCCACAUCUACGAAUUC…UUCACUGCAGACUUGACGAAGCUG
Method in brief: (§1)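 Mutagenized RNA pools with a 21-nt variable region (0.43 μM) were reacted with each biotinyl-aminoacyl-oxazolone at 2–1250 μM for 90 minutes at room temperature, in 50 μL HEPES/NaCl/KCl/MgCl2/CaCl2 buffer containing 5% acetonitrile at pH 6.9–7.0. RNA captured on streptavidin was quantified by triplicate qPCR and by Illumina sequencing. The fraction reacted for each sequence was fit to a pseudo-first-order model with bootstrapping, and catalytic enhancement is the median kA divided by the uncatalyzed rate, taken as the low-activity peak of a bimodal Gaussian fit.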

[2] = test system: biotinyl-Ile-oxazolone; assay: self-aminoacylation, catalytic enhancement (BIO) (fold over background); higher = more active; k-Seq, kA / k0A0; sequences stand for … in GGGAAUGGAUCCACAUCUACGAAUUC…UUCACUGCAGACUUGACGAAGCUG
Method in brief: as §1

[3] = test system: biotinyl-Met-oxazolone; assay: self-aminoacylation, catalytic enhancement (BMO) (fold over background); higher = more active; k-Seq, kA / k0A0; sequences stand for … in GGGAAUGGAUCCACAUCUACGAAUUC…UUCACUGCAGACUUGACGAAGCUG
Method in brief: as §1

[4] = test system: biotinyl-Val-oxazolone; assay: self-aminoacylation, catalytic enhancement (BVO) (fold over background); higher = more active; k-Seq, kA / k0A0; sequences stand for … in GGGAAUGGAUCCACAUCUACGAAUUC…UUCACUGCAGACUUGACGAAGCUG
Method in brief: as §1

[5] = test system: biotinyl-Leu-oxazolone; assay: self-aminoacylation, catalytic enhancement (BLO) (fold over background); higher = more active; k-Seq, kA / k0A0; sequences stand for … in GGGAAUGGAUCCACAUCUACGAAUUC…UUCACUGCAGACUUGACGAAGCUG
Method in brief: as §1

[6] = test system: biotinyl-Trp-oxazolone; assay: self-aminoacylation, catalytic enhancement (BWO) (fold over background); higher = more active; k-Seq, kA / k0A0; sequences stand for … in GGGAAUGGAUCCACAUCUACGAAUUC…UUCACUGCAGACUUGACGAAGCUG
Method in brief: as §1

| Sequence | self-aminoacylation [1] | self-aminoacylation [2] | self-aminoacylation [3] | self-aminoacylation [4] | self-aminoacylation [5] | self-aminoacylation [6] |
| --- | --- | --- | --- | --- | --- | --- |
| AAGUUUGCUACUAGUCGCACG [Fam3.1 aminoacylation ribozyme variant] | 1.28 | 0.967 | 1.02 | 0.846 | 1.1 | 1.73 |
| AAGUUUGCUACUCGUCGCAAG [Fam3.1 aminoacylation ribozyme variant] | 0.598 | 0.823 | 0.922 | 1.04 | 0.958 | 1.31 |
| AAGUUUGCUAGUAGUCGCAAU [Fam3.1 aminoacylation ribozyme variant] | 1.2 | 1.01 | 0.922 | 1.08 | 0.95 | 0.724 |
| AAGUUUGCUAGUAGUGGCAAG [Fam3.1 aminoacylation ribozyme variant] | 1.2 | 0.893 | 0.882 | 0.814 | 0.71 | 0.556 |
| AAGUUUGCUAUAAGUCGCAAG [Fam3.1 aminoacylation ribozyme variant] | 1 | 1.12 | 0.995 | 0.9 | 0.726 | 0.892 |
| AAGUUUGCUAUUAGUCACAAG [Fam3.1 aminoacylation ribozyme variant] | 1.85 | 1.19 | 1.24 | 1.3 | 1.16 | 1.28 |
| AAGUUUGCUAUUAGUCGCAUG [Fam3.1 aminoacylation ribozyme variant] | 1.98 | 1.01 | 0.953 | 0.79 | 1.21 | 0.858 |
| AAGUUUGCUAUUCGUCGCAAG [Fam3.1 aminoacylation ribozyme variant] | 0.857 | 0.985 | 1.23 | 0.862 | 0.902 | 0.872 |
| AAGUUUGCUAUUUGUCGCAAG [Fam3.1 aminoacylation ribozyme variant] | 1.05 | 1.04 | 0.936 | 0.819 | 0.989 | 1.2 |
| AAGUUUGCUCAUAAUCGCAAG [Fam3.1 aminoacylation ribozyme variant] | 0.71 | 0.812 | 0.699 | 0.766 | 0.726 | 0.658 |
| AAGUUUGCUCAUAGCCGCAAG [Fam3.1 aminoacylation ribozyme variant] | 1.35 | 0.88 | 0.891 | 0.895 | 0.719 | 0.78 |
| AAGUUUGCUCAUAGUCGCAAA [Fam3.1 aminoacylation ribozyme variant] | 1.45 | 1.49 | 1.69 | 1.41 | 1.44 | 1.49 |
| AAGUUUGCUCAUAGUCGCAAG [Fam3.1 aminoacylation ribozyme variant] | 7.54 | 0.968 | 1.13 | 0.942 | 0.906 | 2.38 |
| AAGUUUGCUGAUAGUCGCAAG [Fam3.1 aminoacylation ribozyme variant] | 1.68 | 0.979 | 0.906 | 0.952 | 0.866 | 1.02 |
| AAGUUUGCUUAUAAUCGCAAG [Fam3.1 aminoacylation ribozyme variant] | 1.03 | 0.833 | 0.688 | 0.815 | 0.739 | 1.02 |
| AAGUUUGCUUAUAGUCGCACG [Fam3.1 aminoacylation ribozyme variant] | 1.27 | 0.815 | 0.961 | 0.855 | 0.932 | 0.924 |
| AAGUUUGCUUAUAGUCGCAUG [Fam3.1 aminoacylation ribozyme variant] | 1.33 | 0.918 | 0.857 | 0.999 | 0.926 | 0.976 |
| AAGUUUGCUUAUAGUUGCAAG [Fam3.1 aminoacylation ribozyme variant] | 0.81 | 0.877 | 0.919 | 0.987 | 0.894 | 0.591 |
| AAGUUUGGUAAUAGACGCAAG [Fam3.1 aminoacylation ribozyme variant] | 0.706 | 0.574 | 0.453 | 0.487 | 0.442 | 0.575 |
| AAGUUUGGUAAUAGUCGCAUG [Fam3.1 aminoacylation ribozyme variant] | 2.43 | 1.51 | 1.31 | 1.62 | 1.31 | 1.58 |
| AAGUUUGGUACUAGUCGCAAG [Fam3.1 aminoacylation ribozyme variant] | 2.39 | 1.66 | 2.03 | 1.7 | 1.57 | 1.73 |
| AAGUUUGGUGAUAGUCGCAAG [Fam3.1 aminoacylation ribozyme variant] | 2.03 | 1.36 | 1.51 | 1.23 | 1.43 | 1.42 |
| AAGUUUGGUUAUAGUCGCAAG [Fam3.1 aminoacylation ribozyme variant] | 2.69 | 1.7 | 1.23 | 1.39 | 1.38 | 1.46 |
| AAGUUUGUUAAUAGUCACAAG [Fam3.1 aminoacylation ribozyme variant] | 1.16 | 1.06 | 0.982 | 0.941 | 0.749 | 0.701 |
| AAGUUUGUUAAUAGUCCCAAG [Fam3.1 aminoacylation ribozyme variant] | 1.12 | 0.846 | 0.751 | 0.884 | 0.775 | 0.847 |
| AAGUUUGUUAAUAGUCGAAAG [Fam3.1 aminoacylation ribozyme variant] | 1.08 | 0.947 | 0.764 | 0.998 | 0.935 | 0.713 |

| Sequence | self-aminoacylation [1] | self-aminoacylation [2] | self-aminoacylation [3] | self-aminoacylation [4] | self-aminoacylation [5] | self-aminoacylation [6] |
| --- | --- | --- | --- | --- | --- | --- |
| AAGUUUGUUAAUAGUCGCACG [Fam3.1 aminoacylation ribozyme variant] | 1.4 | 1.04 | 1.12 | 0.925 | 1.22 | 1.04 |
| AAGUUUGUUAAUGGUCGCAAG [Fam3.1 aminoacylation ribozyme variant] | 1.11 | 0.867 | 0.775 | 0.685 | 0.694 | 0.557 |
| AAGUUUUCUAAUAGUCGCACG [Fam3.1 aminoacylation ribozyme variant] | 1.8 | 1.3 | 1.38 | 1.25 | 1.24 | 1.34 |
| AAGUUUUCUAAUGGUCGCAAG [Fam3.1 aminoacylation ribozyme variant] | 2.21 | 1.67 | 1.21 | 1.38 | 1.6 | 1.68 |
| AAGUUUUUUAAUAGUCGCAAG [Fam3.1 aminoacylation ribozyme variant] | 3.28 | 2.01 | 1.58 | 1.62 | 1.71 | 2.02 |
| AAUACCCAGGUCAUCGAGUGA [Fam2.1 aminoacylation ribozyme variant] | 17.6 | 2.87 | 4.41 | 2.56 | 4.58 | 5.81 |
| AAUACCCUGGUCACCGAGUGA [Fam2.1 aminoacylation ribozyme variant] | 39.1 | 4.13 | 6.98 | 3.33 | 6.58 | 6.81 |
| AAUACCCUGGUCAGCGAGUGA [Fam2.1 aminoacylation ribozyme variant] | 3.78 | 2.36 | 4.02 | 2.61 | 4.46 | 5.5 |
| AAUACCCUGGUCAUCAAGUGA [Fam2.1 aminoacylation ribozyme variant] | 2.42 | 1.15 | 1.48 | 1.16 | 1.56 | 1.75 |
| AAUACCCUGGUCAUCGAGAGA [Fam2.1 aminoacylation ribozyme variant] | 0.87 | 0.653 | 0.552 | 0.65 | 0.673 | 0.752 |
| AAUACCCUGGUCAUCGAGUAA [Fam2.1 aminoacylation ribozyme variant] | 3.36 | 1.41 | 1.51 | 1.54 | 1.93 | 1.32 |
| AAUACCCUGGUCAUCGAGUGA [Fam2.1 aminoacylation ribozyme variant] | 20.8 | 5.01 | 9.27 | 5.52 | 8.74 | 11.2 |
| AAUACCCUGGUCAUCGAGUGU [Fam2.1 aminoacylation ribozyme variant] | 20.5 | 3.84 | 8.79 | 4.56 | 7.95 | 8.44 |
| AAUACCCUGGUCAUCGCGUGA [Fam2.1 aminoacylation ribozyme variant] | 118 | 7.23 | 16.9 | 8.98 | 15.7 | 16.1 |
| AAUACCCUGGUCAUCGUGUGA [Fam2.1 aminoacylation ribozyme variant] | 11.4 | 1.51 | 2.55 | 1.35 | 2.39 | 2.98 |
| AAUACCCUGGUCAUCUAGUGA [Fam2.1 aminoacylation ribozyme variant] | 28.3 | 3.19 | 6.98 | 3.66 | 7.36 | 8.94 |
| AAUACCCUGGUCAUGGAGUGA [Fam2.1 aminoacylation ribozyme variant] | 1.9 | 2.21 | 2.43 | 1.86 | 3.47 | 3.45 |
| AAUACCCUGGUCUUCGAGUGA [Fam2.1 aminoacylation ribozyme variant] | 12.6 | 2.2 | 3.34 | 2.32 | 3.26 | 4.72 |
| AAUACCUUGGUCAUCGAGUGA [Fam2.1 aminoacylation ribozyme variant] | 7.36 | 4.23 | 6.2 | 3.99 | 6.66 | 7.87 |
| AAUACGCUGGUCAUCGAGUGA [Fam2.1 aminoacylation ribozyme variant] | 15.1 | 3.67 | 4.31 | 3.88 | 5 | 5.67 |
| AAUACUCUGGUCAUCGAGUGA [Fam2.1 aminoacylation ribozyme variant] | 8.91 | 2.59 | 3.85 | 2.77 | 3.72 | 5.7 |
| AAUAGCCUGGUCAUCGAGUGA [Fam2.1 aminoacylation ribozyme variant] | 18.6 | 4.15 | 4.77 | 4.05 | 4.95 | 7.5 |
| AAUCACCGAGGUCAUCGGGUG [Fam2.2 aminoacylation ribozyme variant] | 67.7 | 5.03 | 5.14 | 5.33 | 6.88 | 7.72 |
| AAUCACCUAGGUCACCGGGUG [Fam2.2 aminoacylation ribozyme variant] | 21.8 | 4.26 | 4.08 | 4.04 | 5.27 | 6.06 |
| AAUCACCUAGGUCAUCGGAUG [Fam2.2 aminoacylation ribozyme variant] | 0.476 | 1.06 | 0.909 | 1.19 | 0.798 | 1.08 |
